Test results: a protein production outcome set (Wang et al. 2014)

Experiment: label from the status in PepcDB records

| Sequence | protein production |
| --- | --- |
| MAALAEEQTEVAVKLEPEGPPTLLPPQAGDGAGEGSGGTPNNGPNGGGGGNVAVAAAAGGDGGTPKPGVAVSAAAPAGAAPVPAAPAEAGAPHDRQTLLAVLQFLRQSNLREAEEALRREARLLEEAVAGSGAPGELDGAGAEAASALLSRVTASVPGSAAPEPPGTGASVTSVFSGSASGPAAPGKVASVAVEDQPDVSAVLSAYNQQGDPTMYEEYYSGLKHFIECSLDCHRAELSQLFYPLFVHMYLELVYNQHENEAKSFFEKFHGDQECYYQDDLRVLSSLTKKEHMKGNETMLDFRTSKFVLRISRDSYQLLKRHLQEKQNNQIWNIVQEHLYIDIFDGMPRSKQQIDAMVGSLAGEAKREANKSKVFFGLLKEPEIEVPLDDEDEEGENEEGKPKKKKPKKDSIGSKSKKQDPNAPPQNRIPLPELKDSDKLDKIMNMKETTKRVRLGPDCLPSICFYTFLNAYQGLTAVDVTDDSSLIAGGFADSTVRVWSVTPKKLRSVKQASDLSLIDKESDDVLERIMDEKTASELKILYGHSGPVYGASFSPDRNYLLSSSEDGTVRLWSLQTFTCLVGYKGHNYPVWDTQFSPYGYYFVSGGHDRVARLWATDHYQPLRIFAGHLADVNCTRFHPNSNYVATGSADRTVRLWDVLNGNCVRIFTGHKGPIHSLTFSPNGRFLATGATDGRVLLWDIGHGLMVGELKGHTDTVCSLRFSRDGEILASGSMDNTVRLWDAVKAFEDLETDDFTTATGHINLPENSQELLLGTYMTKSTPVVHLHFTRRNLVLAAGAYSPQ | failed |
| MQEGQNRKTSSLSILAIAGVEPYQEKPGEEYMNEAQLAHFRRILEAWRNQLRDEVDRTVTHMQDEAANFPDPVDRAAQEEEFSLELRNRDRERKLIKKIEKTLKKVEDEDFGYCESCGVEIGIRRLEARPTADLCIDCKTLAEIREKQMAG | not failed |
| MCRNNREDIFNLVPINIISSKFHVKVIGGGKAATIKVKGLLEKGCYVHILSKEFSKEILDIENKNLKLEKGNYYKEFIKDAHLIIIAVNESSLVYKISKDCEKEYKLYLNAANYKEGMVAIPYSRCYENLGFSISSKLGSPRITRAIGEEVSNIIKENDIYSIKVAKIREKAKKEELKDNIIEIISSKEFKNAILEKREYEYLKNLLGEELANSLTLGLK | failed |
| MSSECDGGSKAVMNGLAPGSNGQDKDMDPTKICTGKGAVTLRASSSYRETPSSSPASPQETRQHESKPGLEPEPSSADEWRLSSSADANGNAQPSSLAAKGYRSVHPNLPSDKSQDSSPLLNEVSSSLIGTDSQAFPSVSKPSSAYPSTTIVNPTIVLLQHNREQQKRLSSLSDPVSERRVGEQDSAPTQEKPTSPGKAIEKRAKDDSRRVVKSTQDLSDVSMDEVGIPLRNTERSKDWYKTMFKQIHKLNRDDDSDLYSPRYSFSEDTKSPLSVPRSKSEMSYIDGEKVVKRSATLPLPARSSSLKSSSERNDWEPPDKKVDTRKYRAEPKSIYEYQPGKSSVLTNEKMSRDISPEEIDLKNEPWYKFFSELEFGKPTNLDKDLSLCQTELEADLEKMETLNKAPSANVPQSSAISPTPEISSETPGYIYSSNFHAVKRESDGAPGDLTSLENERQIYKSVLEGGDIPLQGLSGLKRPSSSASTKVHSRTFNTSNALGPVCKHKKPLSAAKACISEILPSKFKPRLSAPSALLQEQKSILLPSEKAQSCENLCVSGSLNDSKRGLPLQVGGSIENLLMRSRRDYDSKSSSTMSLQEYSTSGRRPCPLSRKAGMQFTMLYRDMHQINRSGLFLGSISSSSSVRDLASHFEKSSLALSRGELGPSQEGSEHIPKHTVSSRITAFEQLIQRSRSMPSLDLSGRLSKSPTPVLSRGSLTSARSAESLLESTKLHPKEMDGMNSSGVYASPTCSNMAHHALSFRGLVPSEPLSTCSDDVDRCSNISTDSREGSGGSVHGDFPKHRLNKCKGTCPASYTRFTTIRKHEQQQTSRQPEWRLDARGDKSTLLRNIYLMSPLPFRLKKPLHHHPRQPSPGDSSGLLVGQKPDLPSQPHQDQPPSGGKPVVPTRLSSRHTMARLSRSSEPSQERPTALEDYPRAINNGNSVPYSDHSLDRNNNPQSELAPSRGDSESPRHFIPADYLESTEEFIRRRHDDKEMRPARAKFDFKAQTLKELPLQKGDIVYIYKQIDQNWYEGEHHGRVGIFPRTYIELLPPAEKAQPKKLTPVQVLEYGEAIAKFNFNGDTQVEMSFRKGERITLLRQVDENWYEGRIPGTSRQGIFPITYVDVIKRPLVKNPVDYMDLPFSSSPSRSATASPQQPQAQQRRVTPDRSQTSQDLFSYQALYSYIPQNDDELELRDGDIVDVMEKCDDGWFVGTSRRTKQFGTFPGNYVKPLYL | not failed |
| MKFKRLRTSENKLYYKAMELYKISFPFHEQRKSSLQEEILKNKEYQFNLIYDKNQFVGIILCWETDDFIYVEHFCIFPEMRNNRYGQRALELLNKKGKTIILEIDLPIDEISIYRKAFYERVKYKTNNYEHIHPPYHEKFNGHNLIVMSYPEKLSKMEYDKFNHYLRNNVMSF | failed |
| MFRRLILRQAAAVAAESKIACHHTVHGFEQRRGLHSRNEKAMEYVAKGWSAIKEVERVIDYCELNDRRLIPLLRGAKENFELALEADNLNTHARYWLSKLHLKYHVPGACKAVGAALLVEAADMGNADAQYELGCRLRVENDHVQSDQQAFHYIENAVDQLHPGALYLLGIVYLTGDCVKQDVDSAIWCFHRASEKGHAGAAIAYGSLLLRGVQVPESLTKLNVVGVSPPKRARKNLENPEMNPLEMAKEQFQIAARAGCDLGLKWLQRVEQEEKLLMREQDNECAYV | failed |
| MSAQEPWTAATAKGTALKNTTLLKALTIGILSILALIPLGIIMDLTSDREMLYHSVVEEIGRSWGEQQTLSGPALVIPYRYFVMEEEVSNDGKTRREVKRTYQDELVILPKKLALDLDLKHDFRTRGIYQSLVYSAALKGQADFSLNSYDIPNLIALDNKNARLVFGVSSNQAIDKVEKIEIKGDSALLSGSLMSGTGLTTGGLEKGFNQGIQVSEASDFSVNFAMTLRGSQSISALPLGEQTLINIQADWPHPSFKGLLPAEREINAKGFTASWNISHLTRNYPQEFVKSNQSTLTEVVANAILFEPVTHYGKIDRSVKYGLLFIVLTFIMLFIFELGQKTSLSIVQYILVGSAMALFYLLLLSLSEHLAFLQAYLIAACIPVLSVSTYVGSATASLKRGVIVGTMLVSLYAVLYSILQLEDYALLMGTGLLVVVLLILMFVTRHQSKNTAQ | not failed |
| MLVCYSVLACEILWDLPCSIMGSPLGHFTWDKYLKETCSVPAPVHCFKQSYTPPSNEFKISMKLEAQDPRNTTSTCIATVVGLTGARLRLRLDGSDNKNDFWRLVDSAEIQPIGNCEKNGGMLQPPLGFRLNASSWPMFLLKTLNGAEMAPIRIFHKEPPSPSHNFFKMGMKLEAVDRKNPHFICPATIGEVRGSEVLVTFDGWRGAFDYWCRFDSRDIFPVGWCSLTGDNLQPPGTKVVIPKNPYPASDVNTEKPSIHSSTKTVLEHQPGQRGRKPGKKRGRTPKTLISHPISAPSKTAEPLKFPKKRGPKPGSKRKPRTLLNPPPASPTTSTPEPDTSTVPQDAATIPSSAMQAPTVCIYLNKNGSTGPHLDKKKVQQLPDHFGPARASVVLQQAVQACIDCAYHQKTVFSFLKQGHGGEVISAVFDREQHTLNLPAVNSITYVLRFLEKLCHNLRSDNLFGNQPFTQTHLSLTAIEYSHSHDRYLPGETFVLGNSLARSLEPHSDSMDSASNPTNLVSTSQRHRPLLSSCGLPPSTASAVRRLCSRGVLKGSNERRDMESFWKLNRSPGSDRYLESRDASRLSGRDPSSWTVEDVMQFVREADPQLGPHADLFRKHEIDGKALLLLRSDMMMKYMGLKLGPALKLSYHIDRLKQGKF | failed |
| MAEAVERTDELVREYLLFRGFTHTLRQLDAEIKADKEKGFRVDKIVDQLQQLMQVYDLAALRDYWSYLERRLFSRLEDIYRPTINKLKTSLFRFYLVYTIQTNRNDKAQEFFAKQATELQNQAEWKDWFVLPFLPSPDTNPTFATYFSRQWADTFIISLHNFLSVLFQCMPVPVILNFDAECQRTNQVQEENEVLRQKLFALQAEIHRLKKEEQQQEEEAAALVQHKLPPYVSSMDRLGDSELALVCSQRPASLSQSPRVGFLSSLLPQSKKSPSRLSPAQGPPQAQSSAKKDSFSSQATKGKDSVPGAKDGKSLLSGPVPGEASWTHQRQRRLQDHGKERRELLSTSSSQSQCAERKPEVSGAEAEPCLELHMGPVEVLARVSTAGSEGDRPEQPFIVLSQEEYGEHHSSIMHCRVDCSGRRVASLDVDGVIKVWSFNPIMQTKASSISKSPLLSLEWATKRDRLLLLGSGVGTVRLYDTEAKKNLCEININDDMPRILSLACSPNGASFVCSAAAPSLTSQTDSSAPDIGSKGMNQVPGKLLLWDTKTMKQQLQFSLDPEPIAINCTAFNHNGNLLVTGAADGVIRLFDMQQHECAMSWKAHCGEVYSVEFSCDENAVYSIGEDRKFIQWNIHKSGLKVSESNLPSDATGPFVLSGYSGYKQVQVPRGRLFAFDSEGNYMLTCSATGGLIYKLGSEEKVLENCLSLGGHRAPVVTVDWSTAMDCGTCLTASMDGKIKLTTLLAHKL | failed |
